Assay results: US11472877 (Alector, dated 2022)
Changes are numbered by the printed parent chain.

T1: human TREM2 on BWZ cells (human, UniProt Q9NZC2 19-230)
T1 construct: whole, on cells; not tied to the cell line; also called BWZ Human TREM2
T1 sequence (looked up): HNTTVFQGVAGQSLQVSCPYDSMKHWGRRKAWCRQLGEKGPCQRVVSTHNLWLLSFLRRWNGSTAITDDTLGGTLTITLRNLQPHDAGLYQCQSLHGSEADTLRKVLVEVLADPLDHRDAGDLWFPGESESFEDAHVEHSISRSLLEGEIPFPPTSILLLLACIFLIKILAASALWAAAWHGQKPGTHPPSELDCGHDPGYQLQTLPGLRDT

T2: mouse TREM2 on BWZ cells (mouse, UniProt Q99NH8 19-227)
T2 construct: whole, on cells; also called BWZ Mouse TREM2
T2 sequence (looked up): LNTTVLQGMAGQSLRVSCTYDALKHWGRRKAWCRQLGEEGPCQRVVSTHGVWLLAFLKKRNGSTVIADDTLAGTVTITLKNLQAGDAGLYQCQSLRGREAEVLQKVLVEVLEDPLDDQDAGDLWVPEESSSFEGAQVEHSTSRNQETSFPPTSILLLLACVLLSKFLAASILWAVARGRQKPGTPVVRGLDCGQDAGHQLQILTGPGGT

B1: T1-18 (antibody, IgG1, V domains shown)
VH: EVQLVESGGGLVQPGRSLRLSCAASGFTFDDYAMHWVRQAPGKGLEWVSGISWNSGDIGYADSVKGRFTISRDNAKNTLYLQMNSLRAEDTALYYCAKGPRMVTHLDVWGQGTMVTVSS
VL: DIQMTQSPSTLSASVGDRVTITCRASQSISSWLAWYQQKPGKAPKLLIYKASSLESGVPSRFSGSGSGTEFTLTISSLQPDDFATYYCQQDSIYPITFGGGTKVEIK
notes: huIgG1; also called TI-18; ADI-19085
B2: T1-35 (antibody, IgG1, V domains shown)
VH: QVQLVESGGGVVQPGRSLRLSCAASGFTFSSYGMHWVRQAPGKGLEWVAVISYDGSNKYYADSVKGRFTISRDNSKNTLYLQMNSLRAEDTAVYYCARPDYYSSRGVFDIWGQGTMVTVSS
VL: not shown
notes: huIgG1; also called TI-35; ADI-19109
B3: T1-36 (antibody, IgG1, V domains shown)
VH: B2 VH
VL: not shown
notes: huIgG1; also called TI-36; ADI-19110
B4: T1-37 (antibody, IgG1, V domains shown)
VH: QVQLVESGGGVVQPGRSLRLSCAASGFTFSSYGMHWVRQAPGKGLEWVALIWYDGSNKYYADSVKGRFTISRDNSKNTLYLQMNSLRAEDTAVYYCAKGDYLDPLFDYWGQGTLVTVSS
VL: EIVMTQSPATLSVSPGERATLSCRASQSVSSNLAWYQQKPGQAPRLLIYGASTRATGIPARFSGSGSGTEFTLTISSLQSEDFAVYYCQQYAYWPLTFGGGTKVEIK
notes: huIgG1; also called TI-37; ADI-19111
B5: T1-38 (antibody, IgG1, V domains shown)
VH: QVQLVESGGGVVQPGRSLRLSCAASGLTFSSYGMHWVRQAPGKGLEWVAVISYDGSNKYYADSVKGRFTISRDNSKNTLYLQMNSLRAEDTAVYYCARERGTYYYASGWANWGQGTLVTVSS
VL: not shown
notes: huIgG1; also called TI-38; ADI-19112
B6: T1-39 (antibody, IgG1, V domains shown)
VH: EVQLVESGGGLVKPGGSLRLSCAASGFTFSSYSMNWVRQAPGKGLEWVSSISSSSNYIYYADSVKGRFTISRDNAKNSLYLQMNSLRAEDTAVYYCARRGGSSSTGLLYWGQGTLVTVSS
VL: DIQLTQSPSSVSASVGDRVTITCRASQDISSWLAWYQQKPGKAPKLLIYAASSLQSGVPSRFSGSGSGTDFTLTISSLQPEDFATYYCQQSLTHPTFGGGTKVEIK
notes: huIgG1; also called TI-39; ADI-19113
B7: T1-40 (antibody, IgG1, V domains shown)
VH: EVQLVESGGGLVKPGGSLRLSCAASGFTFSSYSMNWVRQAPGKGLEWVSSISSSSSYIYYADSVKGRFTISRDNAKNSLYLQMNSLRAEDTAVYYCARTRIDDSFDIWGQGTMVTVSS
VL: not shown
notes: huIgG1; also called TI-40; ADI-19114
B8: T1-41 (antibody, IgG1, V domains shown)
VH: not shown
VL: DIQLTQSPSSVSASVGDRVTITCRASQDISSWLAWYQQKPGKAPKLLIYAASSLQSGVPSRFSGSGSGTDFTLTISSLQPEDFATYYCQQAVIHPPYTFGGGTKVEIK
notes: huIgG1; also called TI-41; ADI-19115
B9: T1-42 (antibody, IgG1, V domains shown)
VH: QVQLVESGGGVVQPGRSLRLSCAASGFTFSSYGMHWVRQAPGKGLEWVAVIWYDGSNKGYADSVKGRFTISRDNSKNTLYLQMNSLRAEDTAVYYCARELMVTSGGWLYGMDVWGQGTTVTVSS
VL: EIVMTQSPATLSVSPGERATLSCRASQSVSSNLAWYQQKPGQAPRLLIYGASTRATGIPARFSGSGSGTEFTLTISSLQSEDFAVYYCQQYNVHPPRTFGGGTKVEIK
notes: huIgG1; also called TI-42; ADI-19116
B10: T1-43 (antibody, IgG1, V domains shown)
VH: QVQLVQSGAEVKKPGASVKVSCKASGYTFTSYYMHWVRQAPGQGLEWMGIINPSGGSTSYAQKFQGRVTMTRDTSTSTVYMELSSLRSEDTAVYYCAREAGNYYDIESAFDIWGQGTMVTVSS
VL: not shown
notes: huIgG1; also called TI-43; ADI-19117
B11: T1-44 (antibody, IgG1, V domains shown)
VH: QVQLVQSGAEVKKPGASVKVSCKASGYTFTSYYMHWVRQAPGQGLEWMGVINPSGGSTSYAQKFQGRVTMTRDTSTSTVYMELSSLRSEDTAVYYCAREGSGYDESMDVWGQGTTVTVSS
VL: not shown
notes: huIgG1; also called TI-44; ADI-19119
B12: T1-8 (antibody, IgG1, V domains shown)
VH: B11 VH with V50I, G100V, G102M, Y103T, D104A, E105A, M107L, T115M
VL: not shown
notes: huIgG1; also called TI-8; ADI-19074
B13: T1-45 (antibody, IgG1, V domains shown)
VH: B11 VH
VL: not shown
notes: huIgG1; also called TI-45; ADI-19123
B14: T1-48 (antibody, IgG1, V domains shown)
VH: B11 VH with S54G, G100A, S101G, G102Q, Y103T, D104S, E105S, S106A, M107L, T115M
VL: not shown
notes: huIgG1; also called TI-48; ADI-19121
B15: T1-10 (antibody, IgG1, V domains shown)
VH: B11 VH with V50I, Y103S, D104W, S106T, M107L, T115M
VL: not shown
notes: huIgG1; also called TI-10; ADI-19077
B16: T1-46 (antibody, IgG1, V domains shown)
VH: B11 VH
VL: not shown
notes: huIgG1; also called TI-46; ADI-19124
B17: T1-49 (antibody, IgG1, V domains shown)
VH: QVQLVQSGAEVKKPGASVKVSCKASGYTFTSYYMHWVRQAPGQGLEWMGIINPSGGSTSYAQKFQGRVTMTRDTSTSTVYMELSSLRSEDTAVYYCAREAGSWLISTAFDIWGQGTMVTVSS
VL: not shown
notes: huIgG1; also called TI-49; ADI-19122
B18: T1-50 (antibody, IgG1, V domains shown)
VH: QVQLVQSGAEVKKPGASVKVSCKASGYTFTSYYMHWVRQAPGQGLEWMGIINPGGGSTSYAQKFQGRVTMTRDTSTSTVYMELSSLRSEDTAVYYCAREAGTMSSAFDIWGQGTMVTVSS
VL: not shown
notes: huIgG1; also called TI-50; ADI-19125
B19: T1-51 (antibody, IgG1, V domains shown)
VH: QVQLVQSGAEVKKPGSSVKVSCKASGGTFSSYAISWVRQAPGQGLEWMGSIIPIFGTANYAQKFQGRVTITADESTSTAYMELSSLRSEDTAVYYCARSGGYSSSWYGTGYDYWGQGTLVTVSS
VL: B1 VL with D91F, S92Q, I93S, I96F
notes: huIgG1; also called TI-51; ADI-19126
B20: T1-52 (antibody, IgG1, V domains shown)
VH: QVQLVQSGAEVKKPGSSVKVSCKASGGTFSSYAISWVRQAPGQGLEWMGSIIPIFGTANYAQKFQGRVTITADESTSTAYMELSSLRSEDTAVYYCARDRGQYSSSWYGRMDVWGQGTTVTVSS
VL: DIQMTQSPSTLSASVGDRVTITCRASQSISSWLAWYQQKPGKAPKLLIYKASSLESGVPSRFSGSGSGTEFTLTISSLQPDDFATYYCQQSSADSPFTFGGGTKVEIK
notes: huIgG1; also called TI-52; ADI-19127
B21: T1-9 (antibody, IgG1, V domains shown)
VH: QVQLVQSGAEVKKPGASVKVSCKASGYTFTSYYMHWVRQAPGQGLEWMGIINPSGGSTSYAQKFQGRVTMTRDTSTSTVYMELSSLRSEDTAVYYCAREAGYDISSAFDIWGQGTMVTVSS
VL: not shown
notes: huIgG1; also called TI-9; ADI-19076
B22: T1-6 (antibody, IgG1, V domains shown)
VH: B21 VH with I50V, A100S, Y102H, D103S, I104Y, S105V, A107S, I110P, M116L
VL: not shown
notes: huIgG1; also called TI-6; ADI-19072
B23: T1-53 (antibody, IgG1, V domains shown)
VH: B21 VH with M34I, A100S, D103H, I104V, S106T
VL: not shown
notes: huIgG1; also called TI-53; ADI-19128
B24: T1-55 (antibody, IgG1, V domains shown)
VH: QVQLVQSGAEVKKPGASVKVSCKASGYTFTSYYMHWVRQAPGQGLEWMGVINPSGGSTSYAQKFQGRVTMTRDTSTSTVYMELSSLRSEDTAVYYCARGADYYAGFDYWGQGTLVTVSS
VL: not shown
notes: huIgG1; also called TI-55; ADI-19130
B25: T1-56 (antibody, IgG1, V domains shown)
VH: B1 VH with D57S, T78S, M102L, V103L, T104G, H105Y, L106F, V108L, Q111R, M114L
VL: not shown
notes: huIgG1; also called TI-56; ADI-19131
B26: T1-57 (antibody, IgG1, V domains shown)
VH: EVQLVESGGGLVQPGRSLRLSCAASGFTFDDYAMHWVRQAPGKGLEWVSGITWNSGSIGYADSVKGRFTISRDNAKNSLYLQMNSLRAEDTALYYCAKGPRYSKPYFDYWGQGTLVTVSS
VL: DIQMTQSPSSVSASVGDRVTITCRASQGIDSWLAWYQQKPGKAPKLLIYAASSLQSGVPSRFSGSGSGTDFTLTISSLQPEDFATYYCQQRAVFPPTFGGGTKVEIK
notes: huIgG1; also called TI-57; ADI-19132
B27: T1-58 (antibody, IgG1, V domains shown)
VH: QLQLQESGPGLVKPSETLSLTCTVSGGSISSSSYYWGWIRQPPGKGLEWIGSIYYSGSTYYNPSLKSRVTISVDTSKNQFSLKLSSVTAADTAVYYCARQEYGDGYFDLWGRGTLVTVSS
VL: not shown
notes: huIgG1; also called TI-58; ADI-19133

Columns and labels:
[1] = molecular target: T1, human TREM2 on BWZ cells; assay: FACS, BWZ cells
[2] = molecular target: T2, mouse TREM2 on BWZ cells; assay: FACS, BWZ cells

Row | Binder | binding result [1] | binding result [2]
1 | B1 | no binding | no binding
2 | B2 | no binding | no binding
3 | B3 | no binding | no binding
4 | B4 | no binding | no binding
5 | B5 | no binding | no binding
6 | B6 | no binding | no binding
7 | B7 | no binding | no binding
8 | B8 | no binding | no binding
9 | B9 | no binding | no binding
10 | B10 | no binding | no binding
11 | B11 | no binding | no binding
12 | B12 | no binding | no binding
13 | B13 | no binding | no binding
14 | B14 | no binding | no binding
15 | B15 | no binding | no binding
16 | B16 | no binding | no binding
17 | B17 | – | no binding
18 | B18 | no binding | no binding
19 | B19 | no binding | no binding
20 | B20 | no binding | no binding
21 | B21 | no binding | no binding
22 | B22 | no binding | no binding
23 | B23 | no binding | no binding
24 | B24 | no binding | no binding
25 | B25 | no binding | no binding
26 | B26 | no binding | no binding
27 | B27 | no binding | –
